Results on 3 substances are retold here after paper PMC4164784, “4E-BPs require non-canonical 4E-binding motifs and a lateral surface of eIF4E to repress translation” (Nature Communications, 2014).

pKd: −log10 of the molar value. No end group written: not given here.

Assay [1] concerns the target T1, Dm eIF4E II-AA mutant (I96A, I112A; residues 69–248) (Drosophila melanogaster, UniProt P48598, I107A/I123A).
T1 construct: The solution of eIF4E (residues 69–248, WT or mutant: 1–20 μM) in the calorimetric cell; His6 (N, cleaved yes); made in house; host or cells: E. coli BL21 Star (DE3)
Nature of the assay: ITC, binding to eIF4E II-AA mutant (residues 69–248). Particulars: for affinity for eIF4E II-AA mutant relative to WT (in words): bipartite peptides (C+NC) or eIF4G, lateral-surface mutant vs WT. As to the method:
Unless indicated otherwise, all the proteins were expressed in E. coli BL21 Star (DE3) cells (Invitrogen) that were grown in LB medium overnight at 20 °C. The lysis buffers were supplemented with DNaseI (5 μg ml^−1), lysozyme (1 mg ml^−1) and protease inhibitor cocktail (Roche). The truncated His6-eIF4E (residues 69–248) that was used in the ITC experiments and in Figs 2c and 5b was purified in lysis buffer containing 50 mM HEPES (pH 7.2), 300 mM NaCl, 20 mM imidazole and 2 mM β-mercaptoethanol using Ni^2+-affinity chromatography (HisTrap HP 5 ml, GE Healthcare) and eluted with a gradient of 20–500 mM imidazole. After the cleavage of the His6-tag with HRV3C protease (homemade), the protein was further purified using a heparin column (HiTrap Heparin HP 5 ml, GE Healthcare), followed by size exclusion chromatography (Superdex 75 16/60, GE Healthcare) in 20 mM Na-phosphate (pH 7.0), 300 mM NaCl and 2 mM dithiothreitol (DTT).
For the ITC measurements and the competition assays shown in Figs 4 and 5d–g, the 4E-BP peptides corresponding to the canonical (C) motifs, the combined (C+NC) motifs or L+NC were expressed with an HRV3C cleavable N-terminal MBP-tag and a non-cleavable C-terminal GB1 domain. The cells were lysed by sonication in lysis buffer containing 50 mM HEPES (pH 7.2), 300 mM NaCl and 2 mM DTT. The proteins were purified from the cleared lysates using amylose resin (New England Biolabs) followed by the cleavage of the MBP tag with HRV3C protease overnight at 4 °C. The proteins were further purified by size exclusion chromatography (Superdex 75 16/60, GE Healthcare) in 20 mM Na-phosphate (pH 7.0), 300 mM NaCl and 2 mM DTT. For the eIF4G fragment (residues 578–650) the MBP was removed after cleavage with TEV protease through an additional anion exchange chromatography (HiTrap Q HP 5 ml, GE Healthcare) before the final gel filtration.
The ITC experiments were performed using a VP-ITC microcalorimeter (MicroCal) at 20 °C. The solution of eIF4E (residues 69–248, WT or mutant: 1–20 μM) in the calorimetric cell was titrated with tenfold concentrated solutions of GB1-stabilized peptides corresponding to 4E-BPs C+NC (10 μM), C (50 μM), L+NC (100 μM CUP, 200 μM Thor and 4E-T) or eIF4G (residues 578–650, 20 μM) that were dissolved in the same buffer (20 mM Na-phosphate (pH 7.0) and 150 mM NaCl). The titration experiments consisted of an initial injection of 2 μl followed by 28 injections of 10 μl at an interval of 240 s. Each binding experiment was repeated twice. The thermodynamic parameters were estimated using a one-site binding model (Origin version 7.0), whereby the datapoint of the first injection was removed for the analysis.
mutant (residues 69-248) and CUP (a), Thor (b), 4E-T (c) and eIF4G (d) peptides. The
measurements were performed as described in Supplementary Fig. 3. The solutions
contained the 4E-BP C+NC peptides (10 µM) and 20 µM for the eIF4G peptide. The eIF4E
II-AA mutant concentration in the calorimetric cell was 5 µM.

Assay [2] has as its system eIF4E (II-AA mutant)–eIF4G complex. Nature of the assay: Competition assay, displacement of GST-eIF4G from preassembled eIF4E (II-AA)–eIF4G complexes. In kind it is biochemical, Drosophila melanogaster. To be noted: Fig. 4; 2 μM complex, GB1-fused competitor, 20 min at 4 °C, Strep-Tactin pull down; n=2. The procedure: To obtain the preassembled eIF4E–eIF4G complexes used in Figs 4 and 5d–g, full-length eIF4E (WT or the II-AA mutant) containing an N-terminal SNH-tag was coexpressed with an N-terminal GST-tagged eIF4G (residues 578–650). The cells were lysed by sonication in lysis buffer containing 50 mM HEPES (pH 7.2), 300 mM NaCl and 2 mM DTT. The complexes were purified from the cleared lysates using Protino Glutathione Agarose 4B beads (Machery-Nagel). The complex was further purified using a heparin column (HiTrap Heparin HP 5 ml, GE Healthcare) and a final size exclusion chromatography (Superdex 200 16/60, GE Healtcare) in 20 mM HEPES (pH 7.2), 200 mM NaCl and 2 mM DTT.
For the titration experiments shown in Fig. 4, 2 μM of purified complexes containing SHN-eIF4E (WT or II-AA mutant) bound to GST-eIF4G (residues 578–650) were incubated with increasing amounts (2–20 μM) of purified competitor proteins for 20 min at 4 °C. The eIF4E-bound proteins were recovered via Strep-Tactin Sepharose pull down and eluted with lysis buffer containing 2.5 mM desthiobiotin. The proteins were analyzed by 15% SDS–PAGE followed by staining with Coomassie blue staining. […]
presence of MBP (negative control), increasing amounts of 4E-BP peptides or eIF4G-GB1 in […]
The amounts of GST-eIF4G bound to eIF4E in each experimental condition were determined using the Image J software after Coomassie blue staining. To rule out the possibility that changes in the amount of GST-eIF4G bound to eIF4E resulted from variations in the loading volume, all values were normalized to the levels of SHN-eIF4E present in each condition. These values were set to 100 in the presence of MBP.
Each experiment was repeated at least twice. (e,f) Quantification of the experiments shown in Fig. 5d–g. The amounts of GST-eIF4G remaining bound to eIF4E in the presence of MBP, 4E-BP peptides or eIF4G-GB1 were normalized to those of eIF4E and set to 100 in the presence of MBP. […]
micrographs of fixed S2 cells expressing HA-4E-T and GFP-Tral. The localization of HA-4E-T was determined by indirect immunofluorescence using an anti-HA antibody. […]

Setting [3] is: eIF4E II-AA (69–248), 20 °C, pH 7.0.

T1 sequence (P48598 80-259 I107A/I123A): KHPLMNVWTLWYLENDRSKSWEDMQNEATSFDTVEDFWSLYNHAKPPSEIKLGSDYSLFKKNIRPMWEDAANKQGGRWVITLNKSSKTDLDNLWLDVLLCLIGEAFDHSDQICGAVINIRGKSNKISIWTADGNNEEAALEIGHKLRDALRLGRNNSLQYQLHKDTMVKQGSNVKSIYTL

With “4E-T C+NC: 4E-T residues 9–44, eIF4E-binding region short, C-terminal GB1”, the “affinity for eIF4E II-AA mutant relative to WT (in words)” value in assay [1] is recorded as “not significantly affected”. Moreover, in assay [1] (setting [3]), the TΔS was found to be 2.16 kcal/mol and the ΔG is -10.80 kcal/mol. Further, in assay [2], the “displacement of eIF4G from eIF4E II-AA–eIF4G complex (in words)” value (“displacement of eIF4G” below) is on record as “did not efficiently displace eIF4G”.

Turning to “Thor C+NC: Thor residues 50–83, eIF4E-binding region short, C-terminal GB1 (TKLIYERAFMKNLRGSPLSQTPPSNVPSCLLRGT-GB1; UniProt Q9XZ56 50-83, looked up, fragment)”, the “affinity for eIF4E II-AA mutant relative to WT (in words)” value in assay [1] was “reduced by one and two orders of magnitude, respectively”. Besides, in assay [1] (setting [3]), the TΔS is -0.91 kcal/mol and the ΔG was -8.46 kcal/mol. For the same substance, the “displacement of eIF4G” value in assay [2] is “did not efficiently displace eIF4G”.

In general, pKd refers to the Kd on a negative log10 scale, so that one unit is a factor of ten. A low value points to a high Kd. On to “CUP C+NC: CUP residues 325–376, eIF4E-binding region short, C-terminal GB1 (KSYTRSRLMDIRNGMFNALMHRSKESFVMPRIATCDDIELEGRLRRMNIWRT-GB1; UniProt Q9VMA3 325-376, looked up, fragment)”, for which the pKd in assay [1] (VP-ITC, 20 °C, 20 mM Na-phosphate (pH 7.0), 150 mM NaCl, GB1-fused C+NC peptides (10 μM) or eIF4G (20 μM) into eIF4E II-AA 5 μM, one-site model, each experiment repeated twice) is 7.30. For the same substance, the “affinity for eIF4E II-AA mutant relative to WT (in words)” value in assay [1] is “reduced by one and two orders of magnitude, respectively”. Further, in assay [1] (setting [3]), the TΔS is 8.79 kcal/mol, the ΔG was -9.84 kcal/mol and the ΔH was -18.6 ± 0.7 kcal/mol. The “displacement of eIF4G” value in assay [2] is “did not efficiently displace eIF4G”.
